Results on two molecules are retold here after publication PMC4019675 (Nature cell biology, 2013).

The labels stand for the following.
B2: FtsZ (untagged) (natural protein, UniProt P0A9A6 1-383, looked up)
chain: MFEPMELTNDAVIKVIGVGGGGGNAVEHMVRERIEGVEFFAVNTDAQALRKTAVGQTIQIGSGITKGLGAGANPEVGRNAADEDRDALRAALEGADMVFIAAGMGGGTGTGAAPVVAEVAKDLGILTVAVVTKPFNFEGKKRMAFAEQGITELSKHVDSLITIPNDKLLKVLGRGISLLDAFGAANDVLKGAVQGIAELITRPGLMNVDFADVRTVMSEMGYAMMGSGVASGEDRAEEAAEMAISSPLLEDIDLSGARGVLVNITAGFDLRLDEFETVGNTIRAFASDNATVVIGTSLDPDMNDELRVTVVATGIGMDKRPEITLVTNKQVQQPVMDRYQQHGMAPLTQEQKPVAKVVNDNAPQTAKEPDYLDIPAFLRKQAD

In the experiment “FtsZ (untagged)” the target is B2. Description: co-sedimentation.
Experiment [1] deals with T1, FtsA (wild-type, untagged) (E. coli (PCR amplified from MG1655 …, UniProt P0ABH0 1-420)).
T1 sequence (looked up): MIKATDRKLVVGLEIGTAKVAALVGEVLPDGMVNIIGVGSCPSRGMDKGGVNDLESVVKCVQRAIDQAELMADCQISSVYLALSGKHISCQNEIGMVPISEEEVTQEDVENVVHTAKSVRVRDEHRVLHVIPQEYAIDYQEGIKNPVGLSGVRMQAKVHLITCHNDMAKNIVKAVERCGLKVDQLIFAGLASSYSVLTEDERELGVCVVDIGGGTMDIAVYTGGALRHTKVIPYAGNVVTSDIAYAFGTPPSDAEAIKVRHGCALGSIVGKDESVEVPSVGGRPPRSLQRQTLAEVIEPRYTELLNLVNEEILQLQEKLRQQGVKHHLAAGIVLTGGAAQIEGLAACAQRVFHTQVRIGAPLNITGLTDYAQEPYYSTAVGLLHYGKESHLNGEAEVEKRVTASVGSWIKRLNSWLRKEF
Description: co-sedimentation.

B1: His-Δ22-ZipA (domain or fragment)
chain: not shown
B1: in the experiment with FtsZ (untagged), the binding result was “binds”.
Consider B2, for which the binding result in experiment [1] was “binds”.
